Results on 39 sequences are retold here after the supplement of paper PMC7877785.

± gives the uncertainty stated by the source.

This data set is described as follows: self-splicing fitness, log relative to wild type (ln ratio); higher = more splicing; Tetrahymena group I intron in knt gene, E. coli kanamycin selection, DiMSum; sequences stand for … in CUCUCU…GGAGGGAAAAGUUAUCAGGCAUGCACCUGGUAGCUAGUCUUUAAACCAAUAGAUUGCAUCGGUUUAAAAGGCAAGACCGUCAAAUUGCGGGAAAGGGGUCAACAGCCGUUCAGUACCAAGUCUCAGGGGAAACUUUGAGAUGGCCUUGCAAAGGGUAUGGUAAUAAGCUGACGGACAUGGUCCUAACCACGCAGCCAAGUCCUAAGUCAACAGAUCUUCUGUUGAUAUGGAUGCAGUUCACAGACUAAAUGUCGGUCGGGGAAGAUGUAUUCUUCUCAUAAGAUAUAGUCGGACCUCUCCUUAAUGGGAGCUAGCGGAUGAAGUGAUGCAACACUGGAGCCGCUGGGAACUAAUUUGUAUGCGAAAGUAUAUUGAUUAGUUUUGGAGUACUCGUGGUCG
The gist of the method:
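A randomised library covering all eight P1ex-region intron nucleotides was built with the intron in the knt kanamycin-resistance gene on pET-22b(+) and held in E. coli BL21(DE3). Cells were grown overnight at 37°C or 30°C on LB agar, with or without 25 μg/mL kanamycin, plus 100 μg/mL carbenicillin, 50 μM IPTG and 0.2% rhamnose, and pooled colonies were amplicon-sequenced on an Illumina HiSeq 2500. DiMSum fitness is the error-weighted combination of wild-type-normalised replicate fold changes, kanamycin versus none.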

Consider AUUGAGCAAUAUUACGCGCC, for which, for the setting “30 °C”, the “self-splicing fitness (ln)” value is -1.62 ± 0.48.

As to UAUAAGCAAUAUUACGCGAA, the “self-splicing fitness (ln)” value is, setting by setting: (30 °C) -1.09 ± 0.15; (37 °C) -0.98 ± 0.16.

Consider UGAUAGCAAUAUUACGACUA, for which the “self-splicing fitness (ln)” value is -0.635 ± 0.13 (30 °C) and 0.407 ± 0.17 (37 °C).

GUGUAGCAAUAUUACGCCGA: the “self-splicing fitness (ln)” value (37 °C) is -2.39 ± 0.42.

Consider UUGGAGCAAUAUUACGGUCG, for which the “self-splicing fitness (ln)” value (30 °C) is -2.36 ± 0.28.

Consider AUAGAGCAAUAUUACGUCAG, for which the “self-splicing fitness (ln)” value is -3.64 ± 0.28 (30 °C) and -2.66 ± 0.23 (37 °C).

For CGAGAGCAAUAUUACGAUUC, the “self-splicing fitness (ln)” value runs as follows: (30 °C) -2.96 ± 0.38; (37 °C) -1.19 ± 0.29.

As for AAUUAGCAAUAUUACGAGAG, the “self-splicing fitness (ln)” value is -3.43 ± 0.23 (30 °C) and -1.09 ± 0.18 (37 °C).

In the case of AUUUAGCAAUAUUACGCUAA, the “self-splicing fitness (ln)” value is -2.13 ± 0.23 (30 °C) and -1.3 ± 0.31 (37 °C).

In the case of GUAAAGCAAUAUUACGGAGA, the “self-splicing fitness (ln)” value (30 °C) was -3.54 ± 0.28.

GGGAAGCAAUAUUACGUGAU: the “self-splicing fitness (ln)” value reads like this: (30 °C) -2.04 ± 0.1; (37 °C) -1.83 ± 0.16.

For the sequence UUCGAGCAAUAUUACGCAUC, for the setting “30 °C”, the “self-splicing fitness (ln)” value is -2.83 ± 0.39.

For UGAGAGCAAUAUUACGUAAA, the “self-splicing fitness (ln)” value was -4.31 ± 0.39 (30 °C) and -2.43 ± 0.45 (37 °C).

On to CUAGAGCAAUAUUACGGGGC, for which the “self-splicing fitness (ln)” value (30 °C) is -3.9 ± 0.33 and the “self-splicing fitness (ln)” value (37 °C) was -2.31 ± 0.3.

Turning to CUUCAGCAAUAUUACGCCAA, the “self-splicing fitness (ln)” value (37 °C) is -2.31 ± 0.48.

As for GAGUAGCAAUAUUACGCGAU, the “self-splicing fitness (ln)” value is -2.26 ± 0.21 (30 °C) and -2.21 ± 0.39 (37 °C).

Regarding AUGAAGCAAUAUUACGAAAG, the “self-splicing fitness (ln)” value runs as follows: (30 °C) -1.77 ± 0.11; (37 °C) -0.735 ± 0.16.

With GUAAAGCAAUAUUACGUUUU, the “self-splicing fitness (ln)” value was -2.7 ± 0.076 (30 °C) and -1.9 ± 0.1 (37 °C).

For the sequence ACUUAGCAAUAUUACGUUGA, the “self-splicing fitness (ln)” value reads like this: (30 °C) -4.69 ± 0.36; (37 °C) -2.06 ± 0.12.

Take UGUUAGCAAUAUUACGAUCG: the “self-splicing fitness (ln)” value is, setting by setting: (30 °C) -0.427 ± 0.26; (37 °C) -0.0339 ± 0.28.

UUCUAGCAAUAUUACGCACA: the “self-splicing fitness (ln)” value was -0.654 ± 0.27 (30 °C) and -0.205 ± 0.23 (37 °C).

As for GCUCAGCAAUAUUACGUUCC, the “self-splicing fitness (ln)” value was -0.532 ± 0.062 (30 °C) and -0.507 ± 0.088 (37 °C).

On to UAAGAGCAAUAUUACGCAUG, for which the “self-splicing fitness (ln)” value (30 °C) is -2.75 ± 0.28 and the “self-splicing fitness (ln)” value (37 °C) was -1.2 ± 0.23.

In the case of UUCCAGCAAUAUUACGCGCG, the “self-splicing fitness (ln)” value reads like this: (30 °C) -0.776 ± 0.068; (37 °C) -0.688 ± 0.099.

CCAAAGCAAUAUUACGUGCC: the “self-splicing fitness (ln)” value reads like this: (30 °C) -3.77 ± 0.35; (37 °C) -2.31 ± 0.35.

In the case of CUACAGCAAUAUUACGCCUU, the “self-splicing fitness (ln)” value (30 °C) is -2.27 ± 0.2 and the “self-splicing fitness (ln)” value (37 °C) is -1.4 ± 0.31.

As to UUUUAGCAAUAUUACGUAUU, the “self-splicing fitness (ln)” value was -3.2 ± 0.35 (30 °C) and -1.04 ± 0.38 (37 °C).

For CUCGAGCAAUAUUACGCUAG, the “self-splicing fitness (ln)” value (30 °C) is -4.42 ± 0.39 and the “self-splicing fitness (ln)” value (37 °C) was -2.52 ± 0.32.

AGCCAGCAAUAUUACGAACG: the “self-splicing fitness (ln)” value reads like this: (30 °C) -3.24 ± 0.27; (37 °C) -2.97 ± 0.37.

For the sequence CGUCAGCAAUAUUACGACCA, the “self-splicing fitness (ln)” value runs as follows: (30 °C) -0.734 ± 0.11; (37 °C) -0.297 ± 0.13.

With CGAUAGCAAUAUUACGCCGA, the “self-splicing fitness (ln)” value reads like this: (30 °C) -1.92 ± 0.21; (37 °C) -2.05 ± 0.28.

On to GGUCAGCAAUAUUACGCUCG, for which the “self-splicing fitness (ln)” value is -0.0238 ± 0.095 (30 °C) and 0.341 ± 0.12 (37 °C).

Regarding CUUUAGCAAUAUUACGAUCG, the “self-splicing fitness (ln)” value (30 °C) turned out to be 0.191 ± 0.17 and the “self-splicing fitness (ln)” value (37 °C) stood at 0.476 ± 0.22.

CCAGAGCAAUAUUACGCCCU: the “self-splicing fitness (ln)” value (30 °C) is -2.65 ± 0.48 and the “self-splicing fitness (ln)” value (37 °C) was -2.07 ± 0.36.

As to UAGCAGCAAUAUUACGAUAC, the “self-splicing fitness (ln)” value was -4.05 ± 0.4 (30 °C) and -2.2 ± 0.33 (37 °C).

Take ACCUAGCAAUAUUACGGAGA: the “self-splicing fitness (ln)” value (30 °C) is -1.83 ± 0.17 and the “self-splicing fitness (ln)” value (37 °C) is -2.45 ± 0.2.

As to GUGUAGCAAUAUUACGCCCG, the “self-splicing fitness (ln)” value (30 °C) is -2.51 ± 0.35 and the “self-splicing fitness (ln)” value (37 °C) was -0.74 ± 0.23.

GCUAAGCAAUAUUACGUCGA: the “self-splicing fitness (ln)” value by setting is: (30 °C) -1.21 ± 0.11; (37 °C) -0.619 ± 0.15.

As for AAUGAGCAAUAUUACGGCCC, the “self-splicing fitness (ln)” value is -1.23 ± 0.47 (30 °C) and -1.48 ± 0.37 (37 °C).
